Measured values from patent US20060193771A1.

T1: recombinant soluble CD30 (sCD30) produced in E. coli (human)
T1 sequence: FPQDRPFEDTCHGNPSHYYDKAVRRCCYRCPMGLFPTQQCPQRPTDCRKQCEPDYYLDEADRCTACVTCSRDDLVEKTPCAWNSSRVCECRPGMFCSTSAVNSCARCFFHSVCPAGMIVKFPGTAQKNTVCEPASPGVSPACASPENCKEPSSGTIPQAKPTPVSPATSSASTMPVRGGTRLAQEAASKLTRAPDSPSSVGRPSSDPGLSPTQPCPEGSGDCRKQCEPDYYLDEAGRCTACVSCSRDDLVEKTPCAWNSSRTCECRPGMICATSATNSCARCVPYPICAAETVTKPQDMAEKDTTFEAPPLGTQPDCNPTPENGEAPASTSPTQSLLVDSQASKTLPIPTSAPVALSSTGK

T2: CD30-Fc (human)
T2 sequence: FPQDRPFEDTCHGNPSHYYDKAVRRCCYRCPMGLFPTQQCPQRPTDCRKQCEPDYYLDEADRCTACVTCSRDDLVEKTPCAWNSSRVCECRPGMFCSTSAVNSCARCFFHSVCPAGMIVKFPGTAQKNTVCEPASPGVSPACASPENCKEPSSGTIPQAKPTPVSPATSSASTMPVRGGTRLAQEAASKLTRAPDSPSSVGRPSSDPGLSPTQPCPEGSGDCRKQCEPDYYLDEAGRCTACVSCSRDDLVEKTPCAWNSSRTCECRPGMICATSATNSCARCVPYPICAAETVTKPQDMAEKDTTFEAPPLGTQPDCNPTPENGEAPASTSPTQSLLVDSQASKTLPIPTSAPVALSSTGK


Assays:
[1] = molecular target: T1, recombinant soluble CD30 (sCD30) produced in E. coli (human); assay: SPR (BIAcore), sCD30 immobilized
[2] = molecular target: human CD30, native, expressed on cells (human); assay: cell-based or functional assay
CD30-Fc (human) = molecular target: T2, CD30-Fc (human); assay: affinity of the MAb; ELISA using CD30-Fc
[3] = molecular target: T1, recombinant soluble CD30 (sCD30) produced in E. coli (human); assay: indirect ELISA, sCD30 coated
[4] = molecular target: T1, recombinant soluble CD30 (sCD30) produced in E. coli (human); assay: SPR (BIAcore), sCD30 immobilized; not corrected for bivalency
[5] = molecular target: human CD30, native, expressed on cells (human); assay: competitive FACS on L540 cells, unlabeled MAb 2.5 µg/ml; competitor: biotin-T14
[6] = molecular target: human CD30, native, expressed on cells (human); assay: competitive FACS on L540 cells, unlabeled MAb 2.5 µg/ml; competitor: biotin-HRS-4
[7] = molecular target: human CD30, native, expressed on cells (human); assay: FACS, L428 cells, MAb 5 µg/ml; HeFi-I is the control itself
[8] = molecular target: human CD30, native, expressed on cells (human); assay: competitive FACS on L540 cells, unlabeled MAb 2.5 µg/ml; competitor: biotin-HeFi-I
[9] = molecular target: human CD30, native, expressed on cells (human); assay: competitive FACS on L540 cells, unlabeled MAb 2.5 µg/ml; competitor: biotin-T25
[10] = molecular target: human CD30, native, expressed on cells (human); assay: competitive FACS on L540 cells, unlabeled MAb 2.5 µg/ml; competitor: biotin-T24
[11] = molecular target: human CD30, native, expressed on cells (human); assay: competitive FACS on L540 cells, unlabeled MAb 2.5 µg/ml; competitor: biotin-T6
[12] = molecular target: human CD30, native, expressed on cells (human); assay: FACS, L540 cells, MAb 5 µg/ml; HeFi-I is the control itself

Binder	Kd [1]	koff [1]	kon [1]	IC50, cytotoxicity on A431 cells stably transfected with CD30 [2]	Kd (CD30-Fc (human))	titer in ELISA [3]	Kd [4]	koff [4]	kon [4]	inhibition of the binding of biotin-MAb (%) [5]	inhibition of the binding of biotin-MAb (%) [6]	relative reactivity in FACS (% of control) [7]	inhibition of the binding of biotin-MAb (%) [8]	inhibition of the binding of biotin-MAb (%) [9]	inhibition of the binding of biotin-MAb (%) [10]	inhibition of the binding of biotin-MAb (%) [11]	relative reactivity in FACS (% of control) [12]
CL2(scFv)-PE38 (scFv, V domains shown) VH: EVQLKQSGTELVKPGASVKLSCKASGYTFTSYWMHWVKQRPGQGLEWIGNINPSNGGTNYNEKFKSKATLTIDKSSSTAYMQLSSLTSEDSAVYYCARRTETAQASPFAYWGQGTLVTVSS VL: DIVMTQSHKFMSTSVGDRVSVTCKASQNVGTNVAWYQQKPGQSPKALIYSASTRYSGVPDRFTGSGSGTDFTLTISNVQSEDLAEYFCQQYNSYPFTFGSGTKLEIK	56 nM	0.0022 s⁻¹	38000 M⁻¹ s⁻¹	2.5 ng/mL	–	–	–	–	–	–	–	–	–	–	–	–	–
T7 MAb (antibody, V domains shown) VH: QVQLQQSGAELVRPGSSVKISCKASGYTFSSYWMNWMKQRPGQGLEWIGQIYPGDDDTNYNGKFKGKATLTADKSSSTAYMQLSSLTSEDSAVYFCARRETGRGAWFTYWGQGTLVTVSA VL: DIVLTQSPASLAVSLGQRATISCRASESLEYYGTTLMQWYQQKPGQPPKLLIYAASNVESGVPARFSGSGSGTDFSLNIHPVEEDDIAMYFCHQSRKVPSTFGGGTKLEIK	–	–	–	–	3.5 nM	–	–	–	–	–	–	–	–	–	–	–	–
HeFi-I MAb (antibody, V domains shown) VH: EVKLVESGGGLVQPGGSLRLSCATSGFTFSDYYMNWVRQPPGKALEWLGFIRNKANGYTTEFSASVMGRFTISRDDSQSILYLQMNTLRAEDSATYYCARDPPYGNPHYYAMDYWGQGTSVTVSS VL: DIVLTQSPASLAVSLGQRATISCRASKSVSASGYNYMHWYQQKAGQPPKLLIHLASNLESGVPARFSGSGSGTDFTLNIHPVEEEDASTYYCQHSGELPFTFGSGTKLEIK	–	–	–	–	2.4 nM	105 mL/µg	7.8 nM	0.00054 s⁻¹	72000 M⁻¹ s⁻¹	0%	0%	100 % of control	98%	8.4%	33.4%	0%	100 % of control
